First the molecules themselves.
B1: GST-CD40(ct) (receptor, UniProt P25942 216-277, looked up)
chain: KKVAKKPTNKAPHPKQEPQEINFPDDLPGSNTAAPVQETLHGCQPVTQEDGKESRISVQERQ
notes: domain: cytosolic domain; not shown: glutathione S-transferase tag of plasmid pGEX-CD40(ct)
B2: GST-Fas(ct) (receptor, UniProt P25445 191-335, looked up)
chain: KRKEVQKTCRKHRKENQGSHESPTLNPETVAINLSDVDLSKYITTIAGVMTLSQVKGFVRKNGVNEAKIDEIKNDNVQDTAEQKVQLLRNWHQLHGKKEAYDTLIKDLKKANLCTLAEKIQTIILKDITSDSENSNFRNEIQSLV
notes: domain: cytosolic domain; not shown: glutathione S-transferase tag of plasmid pGEX-Fas(ct)
B3: TRAF7 (282-435), not GST-fused (pcDNA3-myc-TRAF7 (282-435)) (other)
chain: FTSELVPSYDSATFVLENFSTLRQRADPVYSPPLQVSGLCWRLKVYPDGNGVVRGYYLSVFLELSAGLPETSKYEYRVEMVHQSCNDPTKNIIREFASDFEVGECWGYNRFFRLDLLANEGYLNPQNDTVILRFQVRSPTFFQKSRDQHWYIT
notes: transfected in the reporter assay; also called in vitro translated TRAF7 (282-435); TRAF domain of TRAF7; not shown: myc tag of the pcDNA3-myc vector
B4: GST-fusion protein containing the cytosolic domain of HVEM (receptor, UniProt Q92956 224-283, looked up)
chain: CVKRRKPRGDVVKVIVSVQRKRQEAEGEATVIEALQAPPDVTTVAVEETIPSFTGRSPNH
notes: domain: cytosolic domain; Only named in the 293T lysate experiment; not shown: glutathione S-transferase tag
B5: GST-SPOP (1-180) (other)
chain: MSRVPSPPPPAEMSSGPVAESWCYTQIKVVKFSYMWTINNFSFCREEMGEVIKSSTFSSGANDKLKWCLRVNPKGLDEESKDYLSLYLLLVSCPKSEVRAKFKFSILNAKGEETKAMESQRAYRFVQGKDWGFKKFIRRDFLLDEANGLLPDDKLTLFCEVSVVQDSVNISGQNTMNMVK
notes: Bacterial GST fusion purified on glutathione-Sepharose. cDNA amplified from Jurkat cells; also called GST-SPOP fusion protein; GST-fused TPBD of SPOP; not shown: glutathione S-transferase tag encoded by the pGEX4T vector (Pharmacia)
B6: SPOP (1-180), not GST-fused (pcDNA3-myc-SPOP (1-180)) (other)
chain: B5 chain
notes: also called in vitro translated SPOP (1-180); TPBD of SPOP; not shown: myc tag of the pcDNA3-myc vector
B7: GST-DR4(ct) (receptor, UniProt O00220 263-468, looked up)
chain: CIGSGCGGDPKCMDRVCFWRLGLLRGPGAEDNAHNEILSNADSLSTFVSEQQMESQEPADLTGVTVQSPGEAQCLLGPAEAEGSQRRRLLVPANGADPTETLMLFFDKFANIVPFDSWDQLMRQLDLTKNEIDVVRAGTAGPGDALYAMLMKWVNKTGRNASIHTLLDALERMEERHAREKIQDLLVDSGKFIYLEDGTGSAVSLE
notes: domain: cytosolic domain; not shown: glutathione S-transferase tag of plasmid pGEX-DR4(ct)
B8: GST-TNF-R2(ct) (receptor, UniProt P20333 288-461, looked up)
chain: KKKPLCLQREAKVPHLPADKARGTQGPEQQHLLITAPSSSSSSLESSASALDRRAPTRNQPQAPGVEASGAGEARASTGSSDSSPGGHGTQVNVTCIVNVCSSSDHSSQCSSQASSTMGDTDSSPSESPKDEQVPFSKEECAFRSQLETPETLLGSTEEKPLPLGVPDAGMKPS
notes: domain: cytosolic domain; Plasmid provided by Dr. C; Ware; also called TNF-receptor 2; not shown: glutathione S-transferase tag of plasmid pGEX-TNF-R2(ct)
B9: GST-LTβR(ct) (receptor, UniProt P36941 249-435, looked up)
chain: KSHPSLCRKLGSLLKRRPQGEGPNPVAGSWEPPKAHPYFPDLVQPLLPISGDVSPVSTGLPAAPVLEAGVPQQQSPLDLTREPQLEPGEQSQVAHGTNGIHVTGGSMTITGNIYIYNGPVLGGPPGPGDLPATPEPPYPIPEEGDPGPPGLSTPHQEDGKAWHLAETEHCGATPSNRGPRNQFITHD
notes: domain: cytosolic domain; also called lymphotoxin-β receptor; not shown: glutathione S-transferase tag of plasmid pGEX-LTβR(ct)

In one experiment the target is T1, GST-HAUSP (1-213) (human, UniProt Q93009 1-213).
T1 construct: Bacterial GST fusion purified on glutathione-Sepharose. cDNA amplified from Jurkat cells; also called GST-fused TPBD of HAUSP; HAUSP TPBD; not shown: glutathione S-transferase tag encoded by the pGEX4T vector (Pharmacia)
T1 sequence (Q93009 1-213): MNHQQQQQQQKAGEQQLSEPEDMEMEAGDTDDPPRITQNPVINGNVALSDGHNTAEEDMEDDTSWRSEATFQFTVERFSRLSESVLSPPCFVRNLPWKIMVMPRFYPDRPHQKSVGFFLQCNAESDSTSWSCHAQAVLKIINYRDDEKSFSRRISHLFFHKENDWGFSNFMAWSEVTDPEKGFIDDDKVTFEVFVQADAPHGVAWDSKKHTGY
Description: GST pull-down, 35S in vitro translated protein, SDS-PAGE and fluorography.

The target in the experiment “GST-SPOP (1-180)” is B5. The experiment is described as above.
The target in experiment [1] is B3. Description: GST pull-down from 293T cell lysate, anti-Myc immunoblot. (In western blotting, separated proteins are transferred to a membrane and probed.)
Experiment [2] addresses T2, hTRAF5 (complete open reading frame, in vitro translated from pcDNA3-Flag-TRAF5) (human, UniProt O00463 1-557, 35S-methionine labelled).
T2 construct: mature; also called human TRAF 5; not shown: Flag tag of the pcDNA3-Flag vector
Briefly: GST pull-down, 35S in vitro translated protein, SDS-PAGE and fluorography.

Experiment [3] has as its target B6. The description is as above.
The target in experiment [4] is T3, hTRAF4 (complete open reading frame, in vitro translated from pcDNA3-HA-TRAF4) (human, UniProt Q9BUZ4 1-470, 35S-methionine labelled).
T3 construct: mature; also called human TRAF 4; not shown: HA tag of the pcDNA3-HA vector
T3 sequence (looked up): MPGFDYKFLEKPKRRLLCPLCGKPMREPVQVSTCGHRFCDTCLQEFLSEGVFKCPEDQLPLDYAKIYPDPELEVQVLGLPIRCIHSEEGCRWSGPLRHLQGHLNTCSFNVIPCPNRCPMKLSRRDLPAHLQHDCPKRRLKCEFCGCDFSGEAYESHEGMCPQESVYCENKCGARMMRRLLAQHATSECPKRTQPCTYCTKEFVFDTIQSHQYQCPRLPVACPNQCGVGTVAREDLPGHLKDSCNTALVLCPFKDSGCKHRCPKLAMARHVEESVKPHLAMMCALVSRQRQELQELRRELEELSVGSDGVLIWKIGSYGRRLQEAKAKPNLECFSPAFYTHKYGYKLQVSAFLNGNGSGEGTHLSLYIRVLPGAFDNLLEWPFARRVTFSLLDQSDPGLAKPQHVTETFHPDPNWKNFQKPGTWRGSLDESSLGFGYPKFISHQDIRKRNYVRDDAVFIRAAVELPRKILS
Described as above.

The experiment “GST-LTβR(ct)” concerns the target B9. The description is as above.
The experiment “GST-DR4(ct)” addresses B7. The experiment is described as above.
Experiment [5] concerns the target T4, full-length I-TRAF (in vitro translated) (UniProt Q92844 1-425, limits assumed, 35S-methionine labelled).
T4 construct: mature
T4 sequence (looked up): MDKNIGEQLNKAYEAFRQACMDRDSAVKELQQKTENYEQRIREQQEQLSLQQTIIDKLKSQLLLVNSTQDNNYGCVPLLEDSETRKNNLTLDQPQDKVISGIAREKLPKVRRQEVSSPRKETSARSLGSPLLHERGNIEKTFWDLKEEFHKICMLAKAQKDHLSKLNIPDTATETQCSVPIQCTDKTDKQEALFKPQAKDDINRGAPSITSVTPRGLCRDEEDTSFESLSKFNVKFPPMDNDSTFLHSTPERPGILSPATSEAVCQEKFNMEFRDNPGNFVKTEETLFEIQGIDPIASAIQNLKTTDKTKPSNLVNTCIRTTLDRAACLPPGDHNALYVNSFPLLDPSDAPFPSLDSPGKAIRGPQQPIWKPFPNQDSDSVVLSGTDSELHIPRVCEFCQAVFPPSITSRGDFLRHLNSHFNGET
The experiment is described as above.

Experiment [6] concerns the target T5, hTRAF 2 (complete open reading frame, in vitro translated from pcDNA3-HA-TRAF2) (human, UniProt Q12933 2-501, 35S-methionine labelled).
T5 construct: mature; also called human TRAF 2; not shown: HA tag of the pcDNA3-HA vector
T5 sequence (looked up): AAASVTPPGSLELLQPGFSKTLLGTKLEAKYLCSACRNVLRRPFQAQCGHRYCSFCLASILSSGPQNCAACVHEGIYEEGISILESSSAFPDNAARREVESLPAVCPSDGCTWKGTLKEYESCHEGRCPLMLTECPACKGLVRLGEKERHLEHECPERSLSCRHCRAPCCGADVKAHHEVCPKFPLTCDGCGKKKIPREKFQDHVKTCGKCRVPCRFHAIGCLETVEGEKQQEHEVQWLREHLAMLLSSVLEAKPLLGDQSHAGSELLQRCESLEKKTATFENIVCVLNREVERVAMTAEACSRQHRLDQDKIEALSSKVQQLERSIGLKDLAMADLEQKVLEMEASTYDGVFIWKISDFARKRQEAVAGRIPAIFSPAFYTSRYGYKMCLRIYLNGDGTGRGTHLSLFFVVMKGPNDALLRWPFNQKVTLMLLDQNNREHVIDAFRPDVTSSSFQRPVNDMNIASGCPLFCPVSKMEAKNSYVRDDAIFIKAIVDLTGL
The description is as above.

T2 sequence (O00463 whole entry): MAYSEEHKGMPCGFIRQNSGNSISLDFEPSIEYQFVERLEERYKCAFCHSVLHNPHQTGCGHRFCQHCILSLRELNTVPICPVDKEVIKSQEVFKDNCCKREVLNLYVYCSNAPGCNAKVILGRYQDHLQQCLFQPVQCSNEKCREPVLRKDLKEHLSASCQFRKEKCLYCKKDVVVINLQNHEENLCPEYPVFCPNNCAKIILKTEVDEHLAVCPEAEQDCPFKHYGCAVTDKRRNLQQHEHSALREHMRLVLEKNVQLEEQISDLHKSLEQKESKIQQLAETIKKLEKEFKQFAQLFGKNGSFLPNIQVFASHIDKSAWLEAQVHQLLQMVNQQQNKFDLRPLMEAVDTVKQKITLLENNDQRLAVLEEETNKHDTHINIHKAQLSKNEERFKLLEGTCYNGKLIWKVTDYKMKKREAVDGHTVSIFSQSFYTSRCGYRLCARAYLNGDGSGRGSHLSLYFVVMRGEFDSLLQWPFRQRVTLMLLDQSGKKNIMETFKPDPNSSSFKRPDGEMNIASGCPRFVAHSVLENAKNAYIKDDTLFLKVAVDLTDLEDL

As to B1, the binding result with GST-HAUSP (1-213) and in the experiment with GST-SPOP (1-180) was “no binding” each time.

Regarding B2, the binding result in the experiment with GST-HAUSP (1-213) and with GST-SPOP (1-180) was “no binding” each time.

On to B3, for which the binding result in the experiment with GST-HAUSP (1-213) and with GST-SPOP (1-180) was “no binding” each time.

Consider B4, for which the binding result in experiment [1] was “no binding”.

Take B5: the binding result (in [2]; in experiment [3]; in experiment [4]; with GST-LTβR(ct); with GST-DR4(ct); in [5]) was “no binding” each time. For the same molecule, the binding result in experiment [6] was “no binding”.

With B6, the binding result in the experiment with GST-HAUSP (1-213) is “no binding”.

On to B7, for which the binding result in the experiment with GST-HAUSP (1-213) is listed as “no binding”.

On to B8, for which the binding result in the experiment with GST-HAUSP (1-213) is given as “no binding”.

Consider B9, for which the binding result in the experiment with GST-HAUSP (1-213) is “no binding”.
